Experimental data: US20260191954A1, “COMPOSITIONS AND METHODS FOR NEOADJUVANT TREATMENT IN CANCER” (INNATE PHARMA, priority 2022, published 2026)
Values joined by “and” are separate entries in the source; they are usually repeats but may differ in a detail not shown here. Equal values may be shown once.

Legend:
[1] = target: T1, free membrane CD39 (mCD39) on monocytes (Homo sapiens, UniProt P49961); assay: Indirect response PD model: IPH5201 concentration vs free mCD39 on monocytes, phase 1 patients; format: in vivo
T1 construct: endogenous in cells; host or cells: monocytes and B cells in patients' blood
T1 sequence (P49961 1-510): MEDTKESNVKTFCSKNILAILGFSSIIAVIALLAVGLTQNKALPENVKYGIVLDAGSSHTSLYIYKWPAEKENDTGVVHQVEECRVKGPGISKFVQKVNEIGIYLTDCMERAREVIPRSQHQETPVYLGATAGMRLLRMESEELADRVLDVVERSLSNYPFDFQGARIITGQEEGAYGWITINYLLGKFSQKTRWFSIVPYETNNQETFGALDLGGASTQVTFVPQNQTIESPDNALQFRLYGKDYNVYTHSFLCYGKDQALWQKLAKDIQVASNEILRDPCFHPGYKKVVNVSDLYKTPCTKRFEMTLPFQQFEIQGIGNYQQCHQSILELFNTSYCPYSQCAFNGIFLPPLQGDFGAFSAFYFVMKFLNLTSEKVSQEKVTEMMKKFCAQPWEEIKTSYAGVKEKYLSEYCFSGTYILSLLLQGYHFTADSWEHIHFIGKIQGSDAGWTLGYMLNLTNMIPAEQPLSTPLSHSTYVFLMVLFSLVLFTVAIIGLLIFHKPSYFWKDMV
Description: (§1) PK/PD modelling and simulation were used to guide selection of doses. IPH5201 PK data from 45 patients and PD data of free membrane CD39 (mCD39) occupancy on monocytes from 43 patients were available.
An indirect response PD model (inhibition on Kin) was then built to describe the relationship between IPH5201 concentrations and free mCD39 on monocytes (FIG. 10). The model accurately predicted CD39free+ of monocytes (%). […] The final indirect response model was then used for parametric simulation.

OAW42 (CD39+) cells = assay: eATP release in OAW42 (CD39+) cells with IPH5201 and docetaxel; format: cell-based; details: IPH5201 10 or 50 μg/mL + docetaxel dose range, 30 h, FIG. 3B
Protocol: OAW42 (CD39+) cells were incubated with 10 or 50 μg/mL of IPH5201 and treated with a dose range of docetaxel. The measure of eATP release was performed 30 h after docetaxel treatment. eATP was measured in the cell culture supernatant with a luminescent-based assay (CellTiter-Glo®) and expressed in Luminescence Arbitrary Unit (AU). Means+/−SD.

[2] = Pharmacokinetics of IPH5201 in phase 1 patients; format: in vivo, human
Protocol: A first-in-human, multicentre, non-randomised, open-label, phase 1 study was conducted in order to assess the safety, efficacy, pharmacokinetics (PK) and pharmacodynamics (PD) of IPH5201±durvalumab (Imfinzi™) in patients with advanced solid tumours. The study consisted of two consecutive dose-escalation parts: • Part 1: Ascending doses of IPH5201 (100, 300, 1000 and 3000 mg) every 3 weeks (Q3W). • Part 2: Ascending doses of IPH5201 (300, 1000 and 3000 mg) and 1500 mg durvalumab Q3W.
as §1
On the left hand panel, curves from bottom to top represent 100 mg, 300 mg, 1000 mg and 3000 mg doses of IPH5201; on the right hand panel curves from bottom to top represent 300 mg, 1000 mg (up to the 21 day time point) and 3000 mg doses of IPH5201. The PK of IPH5201 was non-linear at ≤300 mg and linear at ≥1000 mg. Free soluble CD39 was above the lower limit of quantitation at cycle 1, day 2 or later in 6/40 patients (n=2, 100 mg; n=1, 1000 mg; n=3, 3000 mg).

CD39 enzyme activity = target: T2, CD39 enzyme activity (Homo sapiens, UniProt P49961); assay: Tumoral CD39 enzyme activity in patient biopsies (Wachstein-Meisel assay); format: in vivo; details: for Significant overall decrease in CD39 enzymatic activity?: Day 15 vs screening biopsy
T2 construct: Tumour samples were obtained from patients with pancreatic cancer and assessed for CD39 enzyme activity; from tissue; host or cells: patients' tumour biopsies (tumour, stroma, vasculature), screening vs Day 15
T2 sequence (P49961 1-510): T1 sequence (P49961 1-510)

[3] = target: T3, membrane-bound CD39 on immune cells (Homo sapiens, UniProt P49961); assay: Free CD39 on monocytes and B cells in patient blood (flow cytometry); format: in vivo
T3 construct: To assess free CD39 on monocytes and B cells, blood samples are spiked with an antibody; endogenous in cells; host or cells: monocytes and B cells in patients' blood
T3 sequence (P49961 1-510): T1 sequence (P49961 1-510)
Protocol: CD39 occupancy by IPH5201 in samples from patients was determined by assessing free soluble CD39 and free membrane bound CD39.
To assess free CD39 on monocytes and B cells, blood samples are spiked with an antibody having the VH and VL of IPH5201 and a mouse Fc domain and labelled with a fluorochrome. A second non-competing anti-CD39 monoclonal antibody labelled with a distinct fluorochrome is used to bind to a site on CD39 distinct from the capture antibody. CD14, CD19 and CD45 are detected by incubation with anti-CD14, CD19 and CD45 monoclonal antibodies each labelled with a distinct fluorochrome. Binding is detected by flow cytometry.

[4] = serum IPH5201, fixed doses Q3W, mono or with durvalumab, FIG. 12

B1: IPH5201: humanized anti-CD39 antibody having the respective heavy and light chain amino acid sequences of SEQ ID NOS: 10 and 11 (antibody)
heavy: QVQLVQSGAEVKKPGASVKVSCKASGYTFTDYNMHWVRQAPGQRLEWIGYIVPLNGGSTFNQKFKGRATITVDTSARTAYMELSSLRSEDTAVYYCARGGTRFAYWGQGTLVTVSSASTKGPSVFPLAPSSKSTSGGTAALGCLVKDYFPEPVTVSWNSGALTSGVHTFPAVLQSSGLYSLSSVVTVPSSSLGTQTYICNVNHKPSNTKVDKRVEPKSCDKTHTCPPCPAPEAEGAPSVFLFPPKPKDTLMISRTPEVTCVVVDVSHEDPEVKFNWYVDGVEVHNAKTKPREEQYNSTYRVVSVLTVLHQDWLNGKEYKCKVSNKALPSSIEKTISKAKGQPREPQVYTLPPSREEMTKNQVSLTCLVKGFYPSDIAVEWESNGQPENNYKTTPPVLDSDGSFFLYSKLTVDKSRWQQGNVFSCSVMHEALHNHYTQKSLSLSPGK
light: DIVMTQSPDSLAVSLGERATINCRASESVDNFGVSFMYWFQQKPGQPPKLLIYGASNQGSGVPDRFSGSGSGTDFTLTISSLQAEDVAVYYCQQTKEVPYTFGGGTKVEIKRTVAAPSVFIFPPSDEQLKSGTASVVCLLNNFYPREAKVQWKVDNALQSGNSQESVTEQDSKDSTYSLSSTLTLSKADYEKHKVYACEVTHQGLSSPVTKSFNRGEC
[1]; indirect response PD model (inhibition on Kin), model parameter
  Production rate constant: 20.5 h⁻¹
[1]; indirect response PD model, monocytes
  Maximum inhibition (IMAX) of CD39free+: 0.926 and 0.92
OAW42 (CD39+) cells
  eATP accumulation: eATP accumulated significantly
[2]; PK data from 45 patients
  population PK model best describing IPH5201 PK: 2-compartment model with parallel linear and saturatable kinetics
[2]; [4]
  dose range in which PK was linear: ≥ 1000 mg
  dose range in which PK was non-linear: ≤ 300 mg
CD39 enzyme activity; 3000 mg dose of IPH5201
  tumoral CD39 enzymatic activity: showed a decrease in enzymatic activity
CD39 enzyme activity; Patient 1, Cohort 1000 mg, NSCLC (squamous)
  Significant overall decrease in CD39 enzymatic activity?: No
CD39 enzyme activity; Patient 3, Cohort 1000 mg, Pancreatic
  Significant overall decrease in CD39 enzymatic activity?: Yes
CD39 enzyme activity; Patient 4, Cohort 3000 mg, Pancreatic
  Significant overall decrease in CD39 enzymatic activity?: Yes
CD39 enzyme activity; Patient 5, Cohort 3000 mg, Pancreatic
  Significant overall decrease in CD39 enzymatic activity?: Yes
CD39 enzyme activity; Patient 6, Cohort 3000 mg, Pancreatic
  Significant overall decrease in CD39 enzymatic activity?: Yes
CD39 enzyme activity; Patient 7, Cohort 3000 mg, NSCLC (squamous)
  Significant overall decrease in CD39 enzymatic activity?: Yes
CD39 enzyme activity; patients with available samples
  patients in whom tumoral CD39 enzymatic activity decreased: 5/8
[3]; 100 mg IPH5201 dose, cycle 2 day 1
  free CD39 at C2D1, monocytes: full rebound
[3]; 300 mg IPH5201 dose, cycle 2 day 1
  free CD39 at C2D1, monocytes: partial rebound
[3]; only the 100 mg IPH5201 dose, cycle 2 day 1
  free CD39 at C2D1, B-cells: rebound
[3]; patient samples, FIG. 11B
  dose at which IPH5201 saturated binding of membrane-bound CD39 on immune cells: 3000 mg
